Experimental data published in patent US20220372125A1 (ASLAN PHARMACEUTICALS PTE, published 2022).
Values belong to the binder of their own block, whether it stands above or below them.

Experiments:
[1] = target: T1, Mammalian expressed extracellular human RON protein (Gly25 to Thr957) with His-tag (human, UniProt Q04912 25-957); assay: KinExA, RON-HIS; 95% Confidence Level 2.30 x 106 to 2.74 x 106
T1 construct: Expressed in ExpiCHO cells, purified on nickel; Position of the His-tag is told inconsistently; Written as one chain; also called RON ECD; RON ECD antigen; not shown: His-tag
T1 sequence: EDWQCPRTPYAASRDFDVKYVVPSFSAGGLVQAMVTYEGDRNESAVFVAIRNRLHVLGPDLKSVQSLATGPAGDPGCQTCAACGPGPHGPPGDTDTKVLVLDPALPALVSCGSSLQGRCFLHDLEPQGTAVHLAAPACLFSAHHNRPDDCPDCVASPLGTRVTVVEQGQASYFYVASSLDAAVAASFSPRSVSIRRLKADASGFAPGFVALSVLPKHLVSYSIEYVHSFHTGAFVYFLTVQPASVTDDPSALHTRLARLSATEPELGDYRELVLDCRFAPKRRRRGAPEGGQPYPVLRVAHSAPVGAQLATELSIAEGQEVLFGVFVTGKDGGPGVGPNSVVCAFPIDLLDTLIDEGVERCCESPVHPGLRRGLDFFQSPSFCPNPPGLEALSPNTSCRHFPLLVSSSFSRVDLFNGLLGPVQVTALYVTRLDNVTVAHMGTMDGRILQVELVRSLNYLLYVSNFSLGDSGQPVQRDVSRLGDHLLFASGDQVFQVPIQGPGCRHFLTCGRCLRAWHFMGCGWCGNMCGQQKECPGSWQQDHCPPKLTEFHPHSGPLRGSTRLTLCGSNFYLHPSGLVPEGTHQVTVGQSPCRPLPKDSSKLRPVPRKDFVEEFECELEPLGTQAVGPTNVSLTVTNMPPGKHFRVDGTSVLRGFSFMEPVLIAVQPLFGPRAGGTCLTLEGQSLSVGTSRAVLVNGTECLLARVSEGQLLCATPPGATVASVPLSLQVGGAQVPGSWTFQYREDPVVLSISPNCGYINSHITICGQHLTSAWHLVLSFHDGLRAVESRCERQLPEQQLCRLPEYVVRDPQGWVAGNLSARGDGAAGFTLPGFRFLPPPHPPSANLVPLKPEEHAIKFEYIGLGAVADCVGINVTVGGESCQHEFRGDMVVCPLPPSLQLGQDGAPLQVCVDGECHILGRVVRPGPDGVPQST

[2] = target: T1, Mammalian expressed extracellular human …; assay: KinExA, RON-HIS
[3] = target: T1, Mammalian expressed extracellular human …; assay: KinExA, RON-HIS; 95% Confidence Level 92.36 pM to 219.67 pM
Protocol: (§1) Mammalian produced recombinant extracellular His-tag RON protein was used for affinity measurements. Affinity determinations were carried out in the fixed antigen format. Antibodies were titrated as two-fold dilutions into a fixed concentration of RON antigen. RON protein was detected using mouse monoclonal to 6×His-Tag (Dylight@650, Thermo Fisher). All affinity measurements were carried out using the KinExa 4000 (Sapidyne Instruments).

[4] = target: T1, Mammalian expressed extracellular human …; assay: KinExA, apparent Kd, column 'Kd by Kinexa (nM)' [continued]
Protocol: Titration curves were generated using indicated fixed concentrations of extracellular RON antigens measured by calibration free concentration analysis (CFCA). Increasing concentrations of RON antibodies were titrated for measurement of binding. Apparent Kd values were determined from an average of the two curves and plotted in table shown.
This limitation of the SPR method for highly avid antibodies has been described previously and the use of kinetic exclusion assay has been proposed as a way to overcome this limitation allowing measurements in the sub nanomolar range. We employed the Kinetic Exclusion assay (KinEXa) method to measure the Kd values of all of the new antibodies using a fixed concentration of the recombinant mammalian expressed protein as the target antigen and a twelve-point dilution curve of each antibody. We dropped antibody 9F6, in this assay as it seemed less avid than the other antibodies in preliminary SPR binding assays. The remaining seven antibodies gave exactly accurate results in duplicate analysis (FIG. 6).
as §1

[5] = target: T1, Mammalian expressed extracellular human …; assay: KinExA, RON-HIS; 95% Confidence Level 1.05 x 105 to 1.61 x 105
[6] = target: T1, Mammalian expressed extracellular human …; assay: KinExA, RON-HIS; 95% Confidence Level 1.74 nM to 4.11 nM
Protocol: as §1

[7] = target: T1, Mammalian expressed extracellular human …; assay: KinExA, RON-HIS; 95% Confidence Level 5.94 nM to 11.84 nM
Protocol: as §1

[8] = target: T1, Mammalian expressed extracellular human …; assay: KinExA, RON-HIS; 95% Confidence Level 2.55 x 105 to 2.81 x 105
[9] = target: T1, Mammalian expressed extracellular human …; assay: KinExA, RON-HIS; 95% Confidence Level 9.65 x 105 to 1.60 x 106
[10] = target: T1, Mammalian expressed extracellular human …; assay: KinExA, RON-HIS; 95% Confidence Level 167.21 pM to 304.60 pM
Protocol: as §1

[11] = target: T1, Mammalian expressed extracellular human …; assay: KinExA, RON-HIS; 95% Confidence Level 2.68 x 105 to 3.10 x 105
[12] = target: T1, Mammalian expressed extracellular human …; assay: KinExA, RON-HIS; 95% Confidence Level 8.64 nM to 18.70 nM
Protocol: as §1

[13] = target: RON (Macrophage stimulating protein receptor), full length, on cells (human, UniProt Q04912 25-1400); assay: cell-based or functional assay
[14] = target: T1, Mammalian expressed extracellular human …; assay: KinExA, RON-HIS; 95% Confidence Level 2.24 x 106 to 4.45 x 106
[15] = target: T1, Mammalian expressed extracellular human …; assay: KinExA, RON-HIS; 95% Confidence Level 448.10 pM to 200.01 pM
Protocol: as §1

kon [1]: 2.44e+06 M⁻¹ s⁻¹
koff [2]: 0.000358 s⁻¹
Kd [3]: 0.146 nM
Kd [4]: 0.15 nM
B1: 3F8 (antibody, V domains shown)
VH: EVKLQESGGGLVQPGRSLKLSCVASGFTFSSFWMHWVRQSPEKGLEWVAEIRLKSNNYATHYAESVKGRFTISRDDSKSSVHLQMNNLRTEDTGIYYCIPPYYYTVDYWGQGTSVTVSS
VL: DIVLTQTPKVMSTSVGDRVSVTCKASQNVNTNVAWYQQKPGQSPKALIYSASSRYSGVPDRFTGSGSGTDFTLTISNVQSEDLADYFCQQYNTYPLTFAAGTKLELK
notes: Mouse monoclonal antibody from a hybridoma; kappa light chain; also called Antibody 3F8; anti-RON antibody 3F8

koff [2]: 0.00353 s⁻¹
kon [5]: 129000 M⁻¹ s⁻¹
Kd [4]: 2.7 nM
Kd [6]: 2.74 nM
B2: 9F2 (antibody, V domains shown)
VH: QVKLQQSGPGLVAPSQSLSITCTVSGFSLTSYGVHWVRQPPGKGLEWLGVIWAGGTTNYNSALMSRLSISKDNSKSQVFLKMNSLQTDDTAMYYCASYDYDGYFDVWGAGTTVTVSS
VL: DIVLTQTTAIMSASPGEKVTMTCSASSSVSYIHWYQQKSSTSPKLWIYDTSKLASGVPGRFSGSGSGNSYSLTISSMEAEDVATYYCFQGNKYPLTFGAGTKLELK
notes: Mouse monoclonal antibody from a hybridoma; kappa light chain; also called Antibody 9F2; anti-RON antibody 9F2

Kd [7]: 8.57 nM
kon [8]: 266000 M⁻¹ s⁻¹
koff [2]: 0.00228 s⁻¹
Kd [4]: 8.6 nM
B3: 6A9 (antibody, V domains shown)
VH: EVKLEESGPGLLKPSQSLSLTCTVTGSSITSDYAWNWIRQFPGNKLEWMGYIGYSVGTSHNPSLKGRISITRDTSKNQFFLHLNSVTTEDTAIYYCARRPLYFYYAMDFWGQGTSVTVSS
VL: DIVLTQSPSSLSASLGDRVTITCRASQDISKYLNWYQQKPDGTVKLLIYYTSTLHSGVPSRFSGSGSGTDFSLTITNLEQEDIATYFCQQGNTLPRTFGGGTKLEIK
notes: Mouse monoclonal antibody from a hybridoma; kappa light chain; also called Antibody 6A9; anti-RON antibody 6A9

kon [9]: 1.25e+06 M⁻¹ s⁻¹
koff [2]: 0.000286 s⁻¹
Kd [10]: 0.23 nM
Kd [4]: 0.23 nM
B4: 7H11 (antibody, V domains shown)
VH: EVKLEQSGPELVKPGASVKISCKASGYTFTDYNMHWVRQPPGQSLEWIGFIYPYNGNSGYNPNFKTKATLTMDISSSTAYMEVRNLTSEDSATYFCASLYYLGYFDVWGAGTTVTVSS
VL: DIVLTQSPVSLAVSLGQRATISCRASKSVSTSAYNFMHWYQQKPGQPPKLLIYLASNLESGVPARLSGSGSGTDFTLNIHPVEEEDAATYYCQHSRELPYTFGGGTKLEIKR
notes: Mouse monoclonal antibody from a hybridoma; kappa light chain; also called Antibody 7H11; anti-RON antibody 7H11

kon [11]: 270000 M⁻¹ s⁻¹
Kd [4]: 13.4 nM
Kd [12]: 13.4 nM
B5: 3F6 (antibody, V domains shown)
VH: EVKLEESGPGLVKPSQSLSLTCSVTGYSITSGYYWNWIRQFPGNKLEWMGFMSYDGSNNYNPSLKNRISITRDTSKNQFFLKLNSVTSEDTATYYCSRALAYYGNFDYWGQGTTLTVSS
VL: DIVLTQTPSSLSASLGDRVTISCSASQDISNYLNWYQQKPDGIVKLLIYYTSSLHSGVPSRFSGSGSGTDFSLTISNLEPEDIATYYCQQYNKLPWTFGGGTKLEIK
notes: Mouse monoclonal antibody from a hybridoma; kappa light chain; also called anti-RON antibody 3F6

B6: chimeric 10G1 (mouse Fab with human Fc backbone) (antibody, V domains shown)
VH: EVKLEQSGGGLVQPGGSRKLSCAASGFTFSSFGMHWVRQAPEKGLEWVAYISGGSGTFYYADTVKGRFTISRDNPKNTLFLQMTSLRSEDTAIYYCARSTTVLDYWGQGTTLTVSS
VL: DIVLTQTPSSMYAFLGERVTIICKASQDINNYLNWVQQKPGKAPKTLIYHADRLADGVPSRFSGSGSGQDYSLTISSLEYEDMGIYYCLQYDDFPPFTFGSGTKLEIK
EC50 of antibody dependent cellular cytotoxicity (xCELLigence, T47D targets, human NK cells, E:T 10:1) [13]: 0.003 nM

IC50 of inhibition of MSP induced ERK phosphorylation (AlphaLISA SureFire p-ERK, T47D cells) [13]: 68 nM
koff [2]: 0.000968 s⁻¹
Kd [4]: 0.3 nM
kon [14]: 3.18e+06 M⁻¹ s⁻¹
Kd [15]: 0.305 nM
B7: 3G4 (antibody, V domains shown)
VH: EVQLQESGPELVKPGTSVRISCKASGYTFTSYYMHWVKQRPGQGLEWIGYIYPGNVNTKYNEKFKGKATLTADKSSSTAYMQLSSLTSEDSAVYFCARLGYYRYGGAMDYWGQGTAVTVSS
VL: DIVLTQTPAILSVSPGERVSFSCRASQSIGTSIHWYQQRTNGSPRLLIKYASESISGIPSRFSGSGSGTDFTLRINSVESEDLADYYCQQSDSWPTTFGGGTKLEIKR
notes: Mouse monoclonal antibody from a hybridoma (supernatant or purified); kappa light chain; also called Antibody 3G4; anti-RON antibody 3G4

IC50 of inhibition of MSP induced ERK phosphorylation (AlphaLISA SureFire p-ERK, T47D cells) [13]: 14.9 nM
B8: Narnatumab (antibody, V domains shown)
VH: EVQLVESGGGLVQPGGSLRLSCAASGFTFSSYLMTWVRQAPGKGLEWVANIKQDGSEKYYVDSVKGRFTISRDNAKNSLNLQMNSLRAEDTAVYYCTRDGYSSGRHYGMDVWGQGTTVIVSS
VL: EIVLTQSPATLSLSPGERATLSCRASQSVSRYLAWYQQKPGQAPRLLIYDASNRATGIPARFSGSGSGTDFTLTISSLEPEDFAVYYCQQRSNWPRTFGQGTKVEIK
